According to patent US20200353062A1, “PHARMACEUTICAL COMPOSITIONS, METHODS FOR PREPARATION COMPRISING SIZING OF LIPID VESICLE PARTICLES, AND USES THEREOF” (IMMUNOVACCINE TECHNOLOGIES INC., priority 2017, published 2020):
Where “and” joins values, the source holds several entries; their conditions need not be identical. Equal values may be shown once. Where no end group is shown, it is not given here. [ ]: non-standard residue; d: D form. Met(O) = CS(=O)CC[C@H](N)C(=O)O

Columns and labels:
[1] = Lipid assay and degradant limit test by RP-HPLC; conditions: for Lipid Impurities (HPLC) / Lipid Impurities (RP-HPLC): % of DOPC area; for Lipid Impurities (RP-HPLC): solubilized Batch #4 in vials, room temperature
[2] = Peptide assay and peptide impurities by RP-HPLC; format: physicochemical; conditions: for Peptide Content by RP-HPLC / Peptide Impurities by RP-HPLC (% Area): compositions from sized lipid vesicle particles
Protocol: Identification and quantification of peptides was performed using a reversed-phase HPLC (RP-HPLC) method. The method utilizes an Agilent 1100 Series HPLC system equipped with a Phenomenex Luna 5 μm C8(2) column. The mobile phase is a gradient of 16-37% (v/v) acetonitrile in 0.1% (v/v) aqueous trifluoroacetic acid. Column temperature is maintained at 50° C., and UV-PDA detection is performed at 215 nm. The assay may also be used to identify peptide impurities. The tests were validated to the extent required for a phase 1/2 clinical phase study (data not included).

[3] = solubilized Batch #4 in syringe, t = 60 min
[4] = compositions from sized lipid vesicle particles, Average (n = 5)
[5] = compositions from sized lipid vesicle particles, individual Vial 1-5
[6] = sized-vesicle preparation stored at 5° C. ± 3° C., 0 months
[7] = sized-vesicle preparation stored at 5° C. ± 3° C., 3 months
[8] = sized-vesicle preparation stored at 5° C. ± 3° C., 6 months
[9] = sized-vesicle preparation stored at 5° C. ± 3° C., 9 months
[10] = sized-vesicle preparation stored at 5° C. ± 3° C., 12 months
[11] = sized-vesicle preparation stored at 5° C. ± 3° C., 18 months
[12] = sized-vesicle preparation stored at −20° C. ± 5° C., 0 months
[13] = sized-vesicle preparation stored at −20° C. ± 5° C., 6 months
[14] = sized-vesicle preparation stored at −20° C. ± 5° C., 12 months
[15] = sized-vesicle preparation stored at −20° C. ± 5° C., 18 months

Compound	Peptide Content by RP-HPLC ([2]; Average (n = 5)) [mg/mL]	Peptide Content by RP-HPLC ([2]; individual Vial 1-5)	Peptide Assay (RP-HPLC) [2, 6] [mg/mL]	Peptide Assay (RP-HPLC) [2, 7] [mg/mL]	Peptide Assay (RP-HPLC) [2, 8] [mg/mL]	Peptide Assay (RP-HPLC) [2, 9] [mg/mL]	Peptide Assay (RP-HPLC) [2, 10] [mg/mL]	Peptide Assay (RP-HPLC) [2, 11] [mg/mL]	Peptide Assay (RP-HPLC) [2, 12] [mg/mL]	Peptide Assay (RP-HPLC) [2, 13] [mg/mL]	Peptide Assay (RP-HPLC) [2, 14] [mg/mL]	Peptide Assay (RP-HPLC) [2, 15] [mg/mL]	further results
CCCCCCCC/C=C\CCCCCCCC(=O)O[C@H](COC(=O)CCCCCCCCCCCCCCC)COP(=O)([O-])OCC[N+](C)(C)C [POPC]													Lipid Impurities (HPLC) ([1]; solubilized Batch #4 in syringe, t = 0): 2.10%; Lipid Impurities (HPLC) ([1]; solubilized Batch #4 in syringe, t = 30 min): 2.91%; Lipid Impurities (HPLC) [1, 3]: 2.94%; Lipid Impurities (RP-HPLC) ([1]; t = 0): 2.65%; Lipid Impurities (RP-HPLC) ([1]; t = 4 h): 1.21%; Lipid Impurities (RP-HPLC) ([1]; t = 24 h): 1.04%; Lipid Impurities (% Area) [1, 4]: 2.65%; Lipid Impurities (% Area) [1, 5]: 2.79% and 2.62% and 2.63% and 2.61% and 2.59%
CC(C)CCC[C@@H](C)[C@H]1CC[C@H]2[C@@H]3CC=C4C[C@@H](O)CC[C@]4(C)[C@H]3CC[C@]12C [Cholesterol, cholesterol]													Lipid Content by RP-HPLC [1, 4]: 11.36 mg/mL; Lipid Content by RP-HPLC [1, 5]: 11.20 mg/mL and 11.62 mg/mL and 11.48 mg/mL and 11.44 mg/mL and 11.05 mg/mL; Lipid Assay (RP-HPLC) [1, 6]: 11.03 mg/mL; Lipid Assay (RP-HPLC) [1, 7]: 11.30 mg/mL; Lipid Assay (RP-HPLC) [1, 8]: 12.26 mg/mL; Lipid Assay (RP-HPLC) [1, 9]: 12.11 mg/mL; Lipid Assay (RP-HPLC) [1, 10]: 12.00 mg/mL; Lipid Assay (RP-HPLC) [1, 11]: 12.25 mg/mL; Lipid Assay (RP-HPLC) [1, 12]: 11.03 mg/mL; Lipid Assay (RP-HPLC) [1, 13]: 12.14 mg/mL; Lipid Assay (RP-HPLC) [1, 14]: 11.10 mg/mL; Lipid Assay (RP-HPLC) [1, 15]: 12.85 mg/mL
LMLGEFLKL (Survivin HLA-A2 (modified)) [SurA2.M, survivin peptide antigen [HLA-A2]]	1.14	1.11 mg/mL and 1.14 mg/mL (2×) and 1.15 mg/mL and 1.18 mg/mL	0.95	0.91	0.91	0.89	0.88	0.91	0.95	0.92	0.89	0.91	
FTELTLGEF (Survivin HLA-A1 (modified)) [SurA1.T, survivin peptide antigen [HLA-A1]]	1.09	1.07 mg/mL (2×) and 1.10 mg/mL and 1.09 mg/mL and 1.11 mg/mL	1.03	1.02	1.03	1.02	0.97	1.07	1.03	1.04	0.99	1.04	
RISTFKNWPK (Survivin HLA-A3 (modified)) [SurA3.K, survivin peptide antigen [HLA-A3], added after sizing]	0.89	0.86 mg/mL and 0.90 mg/mL and 0.91 mg/mL and 0.88 mg/mL and 0.92 mg/mL	1.04	0.99	0.93	0.92	0.93	1.02	1.04	0.98	0.97	1.02	loss in content from the nominal target limit in the final bulk ([2]; peptide combined with lipid mixture before size extrusion (retained by extruder membrane)): approximately 25%
LPPAWQPFL (Survivin HLA-B7) [SurB7, survivin peptide antigen [HLA-B7]]	1.09	1.07 mg/mL (2×) and 1.11 mg/mL (2×) and 1.08 mg/mL	1.09	1.01	1.00	1.00	0.99	1.03	1.09	1.01	1.01	1.03	
RRT 3.66 LMLGEFLKL (M oxidized to sulfoxide; SEQ ID NO: 2): peptide impurity: LMLGEFLKL with M oxidized to sulfoxide (L[Met(O)]LGEFLKL)													Peptide Impurities by RP-HPLC (% Area) ([2]; Average (n = 5)): 0.55%; Peptide Impurities by RP-HPLC (% Area) ([2]; individual Vial 1-5): 0.65% and 0.40% and 0.53% and 0.58% and 0.57%
STFKNWPFL (Survivin HLA-A24) [SurA24, survivin peptide antigen [HLA-A24]]	0.93	0.92 mg/mL and 0.94 mg/mL and 0.93 mg/mL and 0.91 mg/mL and 0.95 mg/mL	1.00	0.98	0.98	0.95	0.95	0.99	1.00	0.99	0.97	1.00	
CCCCCCCC/C=C\CCCCCCCC(=O)OC[C@H](COP(=O)([O-])OCC[N+](C)(C)C)OC(=O)CCCCCCC/C=C\CCCCCCCC [DOPC, 1,2-Dioleoyl-sn-glycero-3-phosphocholine]													Lipid Content by RP-HPLC [1, 4]: 119.03 mg/mL; Lipid Content by RP-HPLC [1, 5]: 117.39 mg/mL and 121.44 mg/mL and 120.26 mg/mL and 120.00 mg/mL and 116.07 mg/mL; Lipid Assay (RP-HPLC) [1, 6]: 118.41 mg/mL; Lipid Assay (RP-HPLC) [1, 7]: 112.91 mg/mL; Lipid Assay (RP-HPLC) [1, 8]: 124.60 mg/mL; Lipid Assay (RP-HPLC) [1, 9]: 130.11 mg/mL; Lipid Assay (RP-HPLC) [1, 10]: 120.00 mg/mL; Lipid Assay (RP-HPLC) [1, 11]: 121.35 mg/mL; Lipid Assay (RP-HPLC) [1, 12]: 118.41 mg/mL; Lipid Assay (RP-HPLC) [1, 13]: 123.60 mg/mL; Lipid Assay (RP-HPLC) [1, 14]: 102.63 mg/mL; Lipid Assay (RP-HPLC) [1, 15]: 128.00 mg/mL
CCCCCCCC/C=C\CCCCCCCC(=O)O [Oleic Acid, oleic acid]													DOPC degradants by RP-HPLC [1, 5]: 0.60 mg/mL and 0.50 mg/mL; Lipid Degradants (RP-HPLC) [1, 6]: 0.3 mg/mL; Lipid Degradants (RP-HPLC) [1, 7]: 0.2 mg/mL; Lipid Degradants (RP-HPLC) [1, 8]: 0.2 mg/mL; Lipid Degradants (RP-HPLC) [1, 9]: 0.4 mg/mL; Lipid Degradants (RP-HPLC) [1, 10]: 0.2 mg/mL; Lipid Degradants (RP-HPLC) [1, 11]: 0.2 mg/mL; Lipid Degradants (RP-HPLC) [1, 12]: 0.3 mg/mL; Lipid Degradants (RP-HPLC) [1, 13]: 0.3 mg/mL; Lipid Degradants (RP-HPLC) [1, 14]: 0.2 mg/mL; Lipid Degradants (RP-HPLC) [1, 15]: 0.3 mg/mL; DOPC degradants by RP-HPLC [1, 3]: 0.60 mg/mL
